# Reference: paper PMC10653093
# Target: Recombinant human heterodimeric S100A8/A9 (human) (UniProt P05109)
# Assay: ELISA
# UniProt P05109, sequence (P05109 whole entry, chain 1 of 2): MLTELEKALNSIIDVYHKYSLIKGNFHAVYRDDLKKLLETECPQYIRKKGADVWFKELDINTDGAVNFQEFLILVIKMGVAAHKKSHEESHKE
# UniProt P05109, sequence (P06702 whole entry, chain 2 of 2, further chain): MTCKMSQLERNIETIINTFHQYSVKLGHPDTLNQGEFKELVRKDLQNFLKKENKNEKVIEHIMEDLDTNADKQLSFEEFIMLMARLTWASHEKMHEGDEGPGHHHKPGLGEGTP
substance,measurement,value
recombinant soluble GPIbα (His-17-Leu505) (domain or fragment),EC50,130 nM
